Assay [1] has as its target T1, cynomolgus PD-L1 antigen (ACROBiosystems) (cynomolgus, UniProt G7PSE7 19-238).
T1 construct: Bought antigen coated on ELISA plates; construct not described
In words: ELISA, coated antigen. The procedure:
(§1) The binding ability of monoclonal antibody to human PD-L1, as well as the species specificity, was detected using an enzyme-linked immunosorbent assay (ELISA). The specific method is as follows: human PD-L1, cynomolgus PD-L1, rat PD-L1, and mouse PD-L1 antigens (all purchased from ACROBiosystems) were coated with 1 μg/mL carbonate buffer (pH=9.6) in an ELISA plate at 100 μL per well, followed by incubation at 4° C. overnight. The wells were washed 5 times with PBST. 300 μL/well of PBST containing 1% BSA was added to block the wells, and the plate was incubated at room temperature for 1 hour. The wells were washed 5 times with PBST. […] The wells were washed 5 times with PBST. […] The wells were washed 5 times with PBST. Colorimetric substrate TMB was added at 100 μL per well and allowed to develop color at room temperature for 10 minutes, followed by the addition of 1 M sulfuric acid to terminate the reaction. The OD_{450 nm} was read on a microplate reader to analyze the results, and the EC₅₀ was calculated using a 4-parameter fit binding curve.
(§2) These monoclonal antibodies are not able to bind to rat PD-L1 or mouse PD-L1.

Assay [2] deals with T2, mouse PD-L1 antigen (ACROBiosystems) (mouse, UniProt Q9EP73 19-239).
T2 construct: Bought antigen coated on ELISA plates; construct not described
Nature of the assay: ELISA, coated antigen. The procedure: as §1, §2

Assay [3] addresses T3, rat PD-L1 antigen (ACROBiosystems) (rat, UniProt D4AE25 19-239).
T3 construct: Bought antigen coated on ELISA plates; construct not described
In words: ELISA, coated antigen. The procedure:
as §1, §2

The target in assay [4] is T4, human PD-L1 antigen (ACROBiosystems) (human, UniProt Q9NZQ7 19-238).
T4 construct: Bought antigen coated on ELISA plates
In words: ELISA, coated antigen. As for the experimental part: as §1, §2

Assay [5] has as its target T4, human PD-L1 antigen (ACROBiosystems). In words: BLI (Gator), antibody captured on PA probe, human PD-L1 in solution. As for the experimental part:
The interaction between monoclonal antibodies and antigens was detected using Gator, a label-free biomolecular interaction analyzer based on the principle of biolayer interferometry (BLI). The specific method is as follows: monoclonal antibody was diluted to 50 nM and added to a probe plate using a PA probe, allowing the monoclonal antibody to be captured by the PA probe. Human PD-L1, an antigen serially diluted starting from 200 nM, was then added for interaction with the […] captured by the PA probe. The interaction was analyzed by detecting the signal change of the reflected interference spectrum on the surface of the probe, and the binding kinetic constants of the antibody were finally calculated.

T1 sequence (G7PSE7 entry or part of it): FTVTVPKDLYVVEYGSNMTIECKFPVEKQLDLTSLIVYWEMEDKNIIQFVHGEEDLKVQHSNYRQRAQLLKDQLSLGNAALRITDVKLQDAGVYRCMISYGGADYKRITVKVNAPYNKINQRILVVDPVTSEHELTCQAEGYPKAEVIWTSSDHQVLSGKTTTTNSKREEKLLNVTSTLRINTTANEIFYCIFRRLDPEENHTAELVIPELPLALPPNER
T2 sequence (Q9EP73 19-239 limits assumed): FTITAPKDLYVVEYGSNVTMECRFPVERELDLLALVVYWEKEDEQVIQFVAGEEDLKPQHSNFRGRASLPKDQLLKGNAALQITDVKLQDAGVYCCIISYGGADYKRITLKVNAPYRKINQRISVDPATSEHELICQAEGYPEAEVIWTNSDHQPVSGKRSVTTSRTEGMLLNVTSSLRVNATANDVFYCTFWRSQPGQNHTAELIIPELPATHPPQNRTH
T4 sequence (Q9NZQ7 19-238 limits assumed): as the sequence (G7PSE7 entry or part of it) above, with T33A, S34A, N62S, Q68R, R82Q, L173F, A185T, I192T, L215H counted along it
T3 sequence (D4AE25 entry or part of it limits assumed): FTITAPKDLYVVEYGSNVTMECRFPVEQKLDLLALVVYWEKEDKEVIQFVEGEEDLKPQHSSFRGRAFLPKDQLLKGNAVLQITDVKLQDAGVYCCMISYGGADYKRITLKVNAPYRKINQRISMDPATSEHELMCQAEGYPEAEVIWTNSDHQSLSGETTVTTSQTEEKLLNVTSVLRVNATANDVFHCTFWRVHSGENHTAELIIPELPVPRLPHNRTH

B1: anti-PD-L1 monoclonal antibody 1102 (antibody, human IgG1, V domains shown)
VH: EVQLVESGGGLVQPGGSLRLSCAASGFTFDYYTQCWFRQAPGKEREWVSCISSSEGSTYYADSVKGRFTISRDNAKNTVYLQMNSLRAEDTAVYYCAARKGGPLTIENFFDYWGQGTQVTVSS
Consider B1, for which the EC50 in assay [1] and in assay [4] was 13 pM each time. Further, the binding result in assay [2] and in assay [3] was “no binding” in each case. Also, in assay [5], binding was characterised by a dissociation constant (Kd) of 4410 pM. Also, the koff in assay [5] was found to be 0.00451 s⁻¹. In addition, the kon in assay [5] is 1.02e+06 M⁻¹ s⁻¹.

B2: anti-PD-L1 monoclonal antibody 1029 (antibody, human IgG1, V domains shown)
VH: EVQLVESGGGLVQPGGSLRLSCAASGFTLDYYSKCWFRQAPGKEREWVSCIGSSDGSTYYADSVKGRFTISRDNAKNTVYLQMNSLRAEDTAVYYCAARNGGPLTIENFFDYWGQGTQVTVSS
In assay [1], B2 yielded an EC50 of 13 pM. Besides, the binding result in assay [2] is “no binding”. In addition, in assay [3], the binding result is listed as “no binding”. The molecule also gave an EC50 in assay [4] of 12 pM. Further, in assay [5], the Kd was 4370 pM, the off-rate (koff) turned out to be 0.00422 s⁻¹ and the kon turned out to be 967000 M⁻¹ s⁻¹.

B3: anti-PD-L1 monoclonal antibody 1541 (antibody, human IgG1, V domains shown)
VH: EVQLVESGGGLVQPGGSLRLSCAASGFTFDYYTQCWFRQAPGKEREWVSCISSSEGSTYYADSVKGRFTISRDNSKNTVYLQMNSLKTEDTAVYYCAARKGGPLTIENFFDYWGQGTQVTVSS
Regarding B3, the response in assay [1] was half-maximal at 18 pM (EC50). The binding result in assay [2] is recorded as “no binding”. Besides, the binding result in assay [3] is “no binding”. The molecule also displayed an EC50 in assay [4] of 14 pM. In assay [5], this molecule came in with a dissociation constant (Kd) of 4380 pM, a dissociation rate constant (koff) of 0.00293 s⁻¹ and a kon of 670000 M⁻¹ s⁻¹.

B4: anti-PD-L1 monoclonal antibody 1031 (antibody, human IgG1, V domains shown)
VH: EVQLVESGGGLVQPGGSLRLSCAASGFTFEYYTKCWFRQAPGKEREWVSCISTSEGSTYYADSVKGRFTISRDNAKNTVYLQMNSLRAEDTAVYYCAARKGGPLTIENFFDYWGQGTQVTVSS
In assay [1], B4 returned an EC50 of 18 pM. In assay [2], the binding result is given as “no binding”. The binding result in assay [3] is reported as “no binding”. Also, in assay [4], the EC50 was found to be 20 pM. In assay [5], binding was put at a Kd of 8300 pM, the dissociation rate constant (koff) stood at 0.00913 s⁻¹ and the on-rate (kon) was found to be 1.1e+06 M⁻¹ s⁻¹.
